Assay results reported in patent US20060141529.

Assays:
[1] = tested on: Cortactin (endogenous, immunoprecipitated from PDGF-stimulated cells)
[2] = target: CRK (positive control substrate printed on the Human ProtoArray microarray) (UniProt P46108)
[3] = target: Shp1 (on Human ProtoArray microarray) (UniProt P29350)
Sequence of Shp1 (on Human ProtoArray microarray) (P29350 whole entry): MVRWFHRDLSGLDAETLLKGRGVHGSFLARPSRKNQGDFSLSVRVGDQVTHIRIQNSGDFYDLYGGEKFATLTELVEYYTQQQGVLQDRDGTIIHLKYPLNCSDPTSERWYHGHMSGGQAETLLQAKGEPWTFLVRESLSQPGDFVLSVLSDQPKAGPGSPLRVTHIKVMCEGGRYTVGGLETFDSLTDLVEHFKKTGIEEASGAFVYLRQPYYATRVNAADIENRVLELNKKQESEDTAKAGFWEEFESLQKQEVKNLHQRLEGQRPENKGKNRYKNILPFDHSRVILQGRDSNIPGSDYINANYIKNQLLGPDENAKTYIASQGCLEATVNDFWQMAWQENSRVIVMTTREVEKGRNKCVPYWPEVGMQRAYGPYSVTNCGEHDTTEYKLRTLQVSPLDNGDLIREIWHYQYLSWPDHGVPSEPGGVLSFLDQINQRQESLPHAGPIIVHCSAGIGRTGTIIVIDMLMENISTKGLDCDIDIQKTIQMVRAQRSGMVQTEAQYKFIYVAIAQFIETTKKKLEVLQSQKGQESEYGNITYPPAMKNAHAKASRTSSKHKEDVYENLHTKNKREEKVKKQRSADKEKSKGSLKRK

Sequence of CRK (positive control substrate printed on the Human ProtoArray microarray) (P46108 whole entry): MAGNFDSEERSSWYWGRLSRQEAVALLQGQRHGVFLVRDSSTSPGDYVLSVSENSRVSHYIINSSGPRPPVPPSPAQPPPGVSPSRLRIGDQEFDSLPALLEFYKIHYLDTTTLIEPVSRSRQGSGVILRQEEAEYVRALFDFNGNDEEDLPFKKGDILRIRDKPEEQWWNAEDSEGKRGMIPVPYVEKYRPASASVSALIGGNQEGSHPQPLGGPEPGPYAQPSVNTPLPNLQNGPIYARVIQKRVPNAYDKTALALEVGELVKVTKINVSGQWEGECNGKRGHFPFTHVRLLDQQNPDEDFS

| Substance | PDGF-stimulated tyrosine phosphorylation of Cortactin (immunoprecipitation and anti-phosphotyrosine immunoblot) [1] | phosphorylation on Human ProtoArray microarray (radiolabeled ATP) [2] | phosphorylation on Human ProtoArray microarray [3] |
| --- | --- | --- | --- |
| ABL (endogenous, in wild-type cell line) | PDGF stimulates phosphorylation of Cortactin 3-fold in wild type cells but not in abl-/-, arg-/-, and abl-/-arg-/- | – | – |
| ARG kinase (protein tyrosine kinase ARG used to probe the Human ProtoArray microarrays) | – | This kinase phosphorylated the control substrate CRK in every subarray | one of the proteins proven to be a substrate for ARG on a Human ProtoArray microarray, Shp1 |
| ARG (endogenous, in wild-type cell line) | PDGF stimulates phosphorylation of Cortactin 3-fold in wild type cells but not in abl-/-, arg-/-, and abl-/-arg-/- | – | – |
